# PMC3246388 (Biomacromolecules, 2011)
# B1: bacteriophage Qβ coat protein, assembled as the recombinant virus-like particle (natural protein)
# chain: MAKLETVTLGNIGKDGKQTLVLNPRGVNPTNGVASLSQAGAVPALEKRVTVSVSQPSRNRKNYKVQVKIQNPTACTANGSCDPSVTRQAYADVTFSFTQYSTDEERAFVRTELAALLASPLLIDAIDQLNPAY
# Target: the molecule itself
# Test: SEC + other: dynamic light scattering + other: transmission electron microscopy
protein,measurement,value
B1,binding result,binds
